From article PMC6910952 (Nature Communications, 2019)
Numbering of substitutions follows the chain as printed.

Columns and labels:
Conditions in all cases: both partners purified
[1] = molecular target: T1, GST-yNpl4 (full length, wild type) (Saccharomyces cerevisiae, UniProt P33755 1-580); assay: pull-down; GST-yNpl4 (0.5 μM) on glutathione beads with 0.5 μM yUfd1 alone; full-length proteins; SDS-PAGE, Coomassie (Fig. 3e)
T1 construct: Npl4 of Saccharomyces cerevisiae (yNpl4), full length; codon-optimized synthetic cDNA; also called GST-Npl4; source: E. coli Rosetta (DE3) (pGEX-6P1), purified (Glutathione Sepharose FF, Resource Q); not shown: GST, N-terminal, kept
T1 sequence (looked up): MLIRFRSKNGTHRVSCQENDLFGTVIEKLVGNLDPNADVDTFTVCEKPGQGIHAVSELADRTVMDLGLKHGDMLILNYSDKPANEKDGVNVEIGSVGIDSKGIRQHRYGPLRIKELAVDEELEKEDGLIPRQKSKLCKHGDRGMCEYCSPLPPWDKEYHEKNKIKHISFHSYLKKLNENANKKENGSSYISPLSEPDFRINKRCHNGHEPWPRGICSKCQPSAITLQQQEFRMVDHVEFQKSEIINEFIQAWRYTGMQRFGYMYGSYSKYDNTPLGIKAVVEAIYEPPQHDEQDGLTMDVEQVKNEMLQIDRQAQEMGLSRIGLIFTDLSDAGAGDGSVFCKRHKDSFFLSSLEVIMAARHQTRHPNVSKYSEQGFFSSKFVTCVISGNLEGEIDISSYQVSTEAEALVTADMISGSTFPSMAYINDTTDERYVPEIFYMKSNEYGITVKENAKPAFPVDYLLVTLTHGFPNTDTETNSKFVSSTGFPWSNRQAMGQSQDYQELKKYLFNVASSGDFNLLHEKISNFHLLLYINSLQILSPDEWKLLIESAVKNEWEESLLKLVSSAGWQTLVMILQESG

[2] = molecular target: T2, GST-yNpl4 M574Q (Saccharomyces cerevisiae, UniProt P33755 1-580, M574Q); assay: pull-down; GST-yNpl4 (0.5 μM, wild type or mutant) on Glutathione Sepharose 4B beads, 1 h at room temperature with 0.5 μM yUfd1, 3 μM Cdc48 (0.5 μM hexamer) and 1 μg K48 chains in 100 μL 50 mM Tris-HCl pH 7.5, 100 mM NaCl, 10% glycerol, 0.1% Triton X-100; chains detected by anti-Ub immunoblot, proteins by Ponceau S
T2 construct: Npl4 of Saccharomyces cerevisiae (yNpl4), full length; source: E. coli Rosetta (DE3) (pGEX-6P1), purified (Glutathione Sepharose FF, Resource Q); not shown: GST, N-terminal, kept
T2 sequence (looked up): T1 sequence (looked up) with M574Q

[3] = molecular target: T3, GST-yNpl4 M574A (Saccharomyces cerevisiae, UniProt P33755 1-580, M574A); assay: as above
T3 construct: Npl4 of Saccharomyces cerevisiae (yNpl4), full length; source: E. coli Rosetta (DE3) (pGEX-6P1), purified (Glutathione Sepharose FF, Resource Q); not shown: GST, N-terminal, kept
T3 sequence (looked up): T1 sequence (looked up) with M574A

- binding result [1]: binds
- binding result [2]: binds
- binding result [3]: binds
B1: yUfd1 (full length, untagged) (natural protein, Saccharomyces cerevisiae, UniProt P53044 1-361, looked up)
chain: MFSGFSSFGGGNGFVNMPQTFEEFFRCYPIAMMNDRIRKDDANFGGKIFLPPSALSKLSMLNIRYPMLFKLTANETGRVTHGGVLEFIAEEGRVYLPQWMMETLGIQPGSLLQISSTDVPLGQFVKLEPQSVDFLDISDPKAVLENVLRNFSTLTVDDVIEISYNGKTFKIKILEVKPESSSKSICVIETDLVTDFAPPVGYVEPDYKALKAQQDKEKKNSFGKGQVLDPSVLGQGSMSTRIDYAGIANSSRNKLSKFVGQGQNISGKAPKAEPKQDIKDMKITFDGEPAKLDLPEGQLFFGFPMVLPKEDEESAAGSKSSEQNFQGQGISLRKSNKRKTKSDHDSSKSKAPKSPEVIEID
notes: Ufd1 of Saccharomyces cerevisiae (yUfd1), full length; codon-optimized synthetic cDNA; removal of GST by HRV3C is surmised; also called untagged Ufd1; source: E. coli Rosetta (DE3) (pGEX-6P1), purified
